From patent US9637768B2, “Method for preparing sialic acid derivative” (priority 2013, dated 2017)

Tests used:
[1] = system: CC(=O)N[C@H]1[C@H]([C@H](O)[C@H](O)CO)O[C@](OP(=O)(O)OC[C@H]2O[C@@H](n3ccc(N)nc3=O)[C@H](O)[C@@H]2O)(C(=O)O)C[C@@H]1O; assay: purified protein, by the assay type; conditions: other: room temperature, substrate 0.1 to 30 mM
[2] = system: Photobacterium damselae α-2,6-sialyltransferase (α2,6PdST), all mutants of Table 3 (I411T, L433S, L433T, I411T/L433S, I411T/L433T); assay: kinetic parameters for α-2,6-sialyltransferase, all mutants (summary); type: biochemical; conditions: all mutants vs wild type
Description: The kinetic parameters, kcat and Km, were obtained from nonlinear regression analysis of Michaelis-Menten equation using Sigma Plot (SigmaPlot) program.
In order to appreciate the effect of each mutation on the donor substrate and the acceptor substrate, kinetic parameters for a single amino acid substitution mutant and a combinatorial mutant were measured.

α-2,6-sialyltransferase = system: α-2,6-sialyltransferase
Text: The entire vector was subjected to PCR using a primer into which NNK sequence (a sequence where N is A, C, G or T, K is G or T) is introduced, the NNK sequence obtained by randomly replacing ATT and CTG sequences corresponding to amino acid positions 411 and 433 of α-2,6-sialyltransferase, thereby constructing a library. In α-2,6-sialyltransferase of the present invention, methionine is the first amino acid when counting from the first methionine sequence. In order to remove the original plasmid, the amplified gene of the sialyltransferase including the vector sequence was treated with Dpn enzyme and transformed into E. coli DH5a. Mutant genes were extracted from all of generated colonies and transformed into E. coli BW25113 (DE3). The transformed individual colonies were inoculated in the LB medium (500 μL) containing ampicillin in 96 well and shake-cultured at 30 to 37° C. for 18 to 24 hours, and then some of the culture liquid was inoculated in new LB medium (500 μL) containing 100 μg mL^−1 ampicillin and IPTG and cultured at 18 to 30° C. for 18 to 40 hours. […]
The wild type strain and mutants of sialyltransferase transformed into E. coli BW25113 (DE3) were expressed using the inducer IPTG in a culture volume of 50 mL, and purified to obtain only pure protein using Ni-NTA column, and specific activity and kinetic parameters were measured.

With “Pasteurella multocida α-2,3-sialyltransferase (α2,3PST) variant T265S (= T241S of SEQ ID NO: 1), SEQ ID NO: 4 (Pasteurella multocida; T265S)” the Km ([1]; T265S) was 2230 µM.

“Pasteurella multocida α-2,3-sialyltransferase (α2,3PST) variant R313H/T265S (= R289H/T241S of SEQ ID NO: 1), SEQ ID NO: 6 (Pasteurella multocida; R313H/T265S)” was tested, and the Km ([1]; R313H/T265S) was 3940 µM.

“Pasteurella multocida α-2,3-sialyltransferase (α2,3PST) variant R313H (= R289H of SEQ ID NO: 1), SEQ ID NO: 3 (Pasteurella multocida; R313H)” gave a Km ([1]; R313H) of 3240 µM.

In the case of “Pasteurella multocida α-2,3-sialyltransferase (α2,3PST) variant R313N/T265S (= R289N/T241S of SEQ ID NO: 1), SEQ ID NO: 5 (Pasteurella multocida; R313N/T265S)”, the Km ([1]; R313N/T265S) is reported as 3330 µM.

For OC[C@H]1O[C@@H](O[C@H]2[C@H](O)[C@@H](O)C(O)O[C@@H]2CO)[C@H](O)[C@@H](O)[C@H]1O (stereo partly drawn) [Lac, lactose], the “binding force with the acceptor substrate” value [2] was “reduced”.

Molecule “Pasteurella multocida (ATCC15742) α-2,3-sialyltransferase (α2,3PST), wild type, SEQ ID NO: 1 (Pasteurella multocida)” has a Km ([1]; wild type) of 1830 µM.

“Pasteurella multocida α-2,3-sialyltransferase (α2,3PST) variant R313N (= R289N of SEQ ID NO: 1), SEQ ID NO: 2 (Pasteurella multocida; R313N)” showed a Km ([1]; R313N) of 2510 µM.

B1: L433T (protein)
chain: MCNSDNTSLKETVSSNSADVVETETYQLTPIDAPSSFLSHSWEQTCGTPILNESDKQAISFDFVAPELKQDEKYCFTFKGITGDHRYITNTTLTVVAPTLEVYIDHASLPSLQQLIHIIQAKDEYPSNQRFVSWKRVTVDADNANKLNIHTYPLKGNNTSPEMVAAIDEYAQSKNRLNIEFYTNTAHVFNNLPPIIQPLYNNEKVKISHISLYDDGSSEYVSLYQWKDTPNKIETLEGEVSLLANYLAGTSPDAPKGMGNRYNWHKLYDTDYYFLREDYLDVEANLHDLRDYLGSSAKQMPWDEFAKLSDSQQTLFLDIVGFDKEQLQQQYSQSPLPNFIFTGTTTWAGGETKEYYAQQQVNVINNAINETSPYYLGKDYDLFFKGHPAGGVINDIILGSFPDMINIPAKISFEVLMMTDMLPDTVAGIASSTYFTIPADKVNFIVFTSSDTITDREEALKSPLVQVMLTLGIVKEKDVLFWA
modifications: L433T
In the case of B1, the “activity increase compared to the wild type strain” value (α-2,6-sialyltransferase; mutant search by colorimetry) is reported as 3 times and the “Rel. Specific Ac (%)” value (α-2,6-sialyltransferase; α2,6PdST, relative to wild type, purified protein, CMP-N-acetylneuraminic acid and lactose) is reported as 296%.
